Laboratory results from publication PMC12828418, “Structural analyses and substrate profiling of PPEP-3 provide new insights into the molecular basis of Pro-Pro endopeptidase specificity” (iScience, 2025).

Molecular target: T1, PPEP-3 E154A/Y190F (proteolytically inactive double mutant of Pro-Pro endopeptidase 3 from Geobacillus … (Geobacillus thermodenitrificans strain …, UniProt A4INY2 27-235, E154A | Y190F))
T1 construct: codon optimised for E. coli, cloned in pET28a via NdeI/XhoI; Zinc metalloprotease; for the substrate complex the catalytic Zn2+ was partly removed with EDTA and ortho-phenanthroline (occupancy about 40-50%); Surmise: pET28a with NdeI/XhoI adds an N-terminal His6 tag with a thrombin site; no cleavage of the tag is described, and 381 uM = 10 mg/mL (about 26 kDa) fits a kept tag; source: E. coli …
T1 sequence (looked up): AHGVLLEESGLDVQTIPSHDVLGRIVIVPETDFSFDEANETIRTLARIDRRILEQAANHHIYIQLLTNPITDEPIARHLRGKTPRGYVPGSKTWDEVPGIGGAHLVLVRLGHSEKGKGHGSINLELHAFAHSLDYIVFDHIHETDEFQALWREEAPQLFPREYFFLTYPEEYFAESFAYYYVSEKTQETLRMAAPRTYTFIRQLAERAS
Experiment: crystal structure; co-crystal of the Zn2+-depleted (EDTA and ortho-phenanthroline) double mutant with the substrate peptide; sitting drop vapour diffusion, Morpheus E9, 0.1 M bicine/Trizma base pH 8.5; 2.02 Å, space group P212121, four monomers in the ASU
Details: both partners purified

binding result: binds
B1: Ac-EPLPPPP-NH2 substrate peptide (peptide)
peptide: Ac-EPLPPPP-NH2
notes: synthetic substrate peptide of PPEP-3; P3-P3' are PLPPPP, cleavage between P1 and P1' prolines; also called PLPPPP (P3-P3'); source: synthetic peptide
